{"source": "the DeepSol protein solubility set", "data": [{"assay": "soluble on expression in E. coli; label from the status in PepcDB or PDB records", "values": [{"sequence": "MKIHTTEALMKAEISRRSLMKTSALGSLALASSAFTLPFSQMVRAAEAPVEEKAVWSSCTVNCGSRCLLRLHVKDDTVYWVESDTTGDDVYGNHQVRACLRGRSIRRRMNHPDRLKYPMKRVGKRGEGKFERISWDEALDTISDNLRRILKDYGNEAVHVLYGTGVDGGNITNSNVPYRLMNSCGGFLSRYGSYSTAQISAAMSYMFGANDGNSPDDIANTKLVVMFGNNPAETRMSGGGVTYYVEQARERSNARMIVIDPRYNDTAAGREDEWLPIRPGTDGALACAIAWVLITENMVDQPFLDKYCVGYDEKTLPANAPRNAHYKAYILGEGPDGIAKTPEWAAKITSIPAEKIIQLAREIGSAKPAYICQGWGPQRHSNGEQTSRAIAMLSVLTGNVGINGGNSGVREGSWDLGVEWFPMLENPVKTQISVFTWTDAIDHGTEMTATRDGVRGKEKLDVPIKFLWCYASNTLINQHGDINHTHEVLQDDSKCEMIVGIDHFMTASAKYCDILLPDLMPTEQEDLISHESAGNMGYVILAQPATSAKFERKPIYWMLSEVAKRLGPDVYQTFTEGRSQHEWIKYLHAKTKERNPEMPDYEEMKTTGIFKKKCPEEHYVAFRAFREDPQANPLKTPSGKIEIYSERLAKIADTWELKKDEIIHPLPAYTPGFDGWDDPLRKTYPLQLTGFHYKARTHSSYGNIDVLQQACPQEVWINPIDAQARGIRHGDTVRVFNNNGEMLIAAKVTPRILPGVTAIGQGAWLKADMFGDRVDHGGSINILTSHRPSPLAKGNPSHSNLVQIEKV", "soluble on expression in E. coli": "not soluble"}, {"sequence": "MEKPDINVAEAWEQYWNKTLVNATPVLWDANVERAVVVDLPRFQSFFDTELPLIDFACGNGTQTKFLSQFFPRVIGFDVSKTALEMASKENTAANISYRLLDGLVPEQAAQIHSEIGDANIYMRTGFHHIPVEKRELLAQSLRTLLGKQGVMYLIELGTGCIEFFNSLLEKYGKLPYELSLVMEHGIRPGIFTTEDIELYFPDFEILSQGESLFQSIHKLPDGNYATPPAFWAVIKRHLEHHHHHH", "soluble on expression in E. coli": "soluble"}, {"sequence": "SLIENSHVKKDDIWPSGGQMTVKDLTAKYTEGGNAILENISFSISPGQRVGLLGRTGSGKSTLLSAFLRLLNTEGEIQIDGVSWDSITLEQWRKAFGVIPQKVFIFSGTFRKNLDPYEQWSDQEIWKVADEVGLRSVIEQFPGKLDFVLVDGGCVLSHGHKQLMCLARSVLSKAKILLLDEPSAHLDPVTYQIIRRTLKQAFADCTVILCEARIEAMLECDQFLVIEENKVRQYDSIQKLLNERSDFRQAISPSDGPSAQLEKELQALEKENAQLEWELQALEKELAQ", "soluble on expression in E. coli": "soluble"}, {"sequence": "MERVPLLPRRFSARPQGNQEAQERTAVKCEQVRYAIQEVIGRGAFGEVSSAEVVGTRDLVAIKRVIHDGRLRQRELTLMRDHLGPNTQQGGVSSLDVGNGVGAHATSVTGSNGEEANGTTAIDGLESWNMPTIVPYHPCVVKLLDHFFASDPSGVQYLFMVMDYIPLDVRRLHHMFLRQREQQMPIILVKVIMFQLARALAFLHARGICHRDVKPNNILVDQETGVVKLCDFGSAKKMQAVGGEGPREKNVPYIFSRYYRAPELLLGSQYYHFHVDMWAFGCVLAELLCGKVLFKGSSSTMDQLVEIIKVLGKPSERELFALNPQSAGSALIRTWGDSHNASQLSPTPSGPLPSSNSANADYMQRRSAPRVKSLLWVEVLPPNTSQAALSLIEQLLRYTPEERLTSAEVLEHVFFDELFSDDARLPNGAPLPASMFQVTREEAEILPPWLLERMAAAEGVAKG", "soluble on expression in E. coli": "soluble"}, {"sequence": "MRKQKNRQRNRGRSQEIALFLDPLATSLKWLQAGRQITTEAFHNPEAGENQYRLISSGFRLSIFGRGAVRQGMNKERFTILLGGDVAVSDRLKRAVVNSRVIAADGGMRHATPLGLTPELWVGDFDSANQELLDAWPDVTRQPYPAAKAVTDGEIAVSEALLRGAHSLLLVGALGGARSDHALQHLLYAVALAERGFEVTLTSGEEEARPLLAGSLAIDLPAGSLFSVAGFTALEGLDIGNVRYPLNDFALAFGSSRTISNVANGGPVHFSLKSGKAIVLARPYDLTGALEHHHHHH", "soluble on expression in E. coli": "soluble"}, {"sequence": "MTEKLKNSKEVIAYIAECFPKCFTLEGEAKPLKIGIFQDLAERLNEDEKVSKTQLRAALRQYTSSWRYLHGVKPGAVRVDLDGNPCGELEEEHVEHAKATLAESKAKVQARRKEQAQKAREEGKAKAKPAANKKPQQPRRTNKPKVQKPTKPVETRALNADEITVGNAVNVNMGKGNMAATIVEINKDDVRVQLANGLQMVVKAEHLRA", "soluble on expression in E. coli": "soluble"}, {"sequence": "MDESVDPVELLLRLLIRHKPHLKPYAYRQDSWQRVLDEYNRQTGSRYRQSRTLKTKFRRLKDLFSADRAQFSPSQLKLMGALLDEAPEHPRPRTKFGNESSSSLSSSSFIKSHPGPDPFQQLSSAEHPNNHSSDDEHSGSQPLPLDSITIGIPPTLHTIPMILSKDNDVGKVIKSPKINKGTNRFSETVLPPQMAAEQSWSDSNMELEICLDYLHNELEVIKKRQEDFECKVLNKLNIIEALLSQMRPPSQGDKI", "soluble on expression in E. coli": "soluble"}, {"sequence": "MGSDKIHHHHHHMNIKQLHYFLVVAEEKQITAAAKRLYIAQPPLSYQLKQLEKELGAQLFKRTAHGIELTDAGQTLQSYASEILSLAQNAKNQVHKTISGELGTVAMGIVSSSTGYMPIAAFKELTQFYPEINFDIYEDNTFGVLDKLEKKTIDMGIVRTPYNRTGLNAKTLTTEKMMAVTNDITLLHKKELRIEDLKDQPLIIYRRFEEMFNQTFAHHGIKPFYAMKCDDSRTAITWAKQNMGLALVPESIATTYAKNKMIAVKHVNWITHLQLVWRKDQIVTPLMKKIISLVK", "soluble on expression in E. coli": "not soluble"}, {"sequence": "MPLDVALKRKYYEEVRPELIRRFGYQNVWEVPRLEKVVINQGLGEAKEDARILEKAAQELALITGQKPAVTRAKKSISNFKLRKGMPIGLRVTLRRDRMWIFLEKLLNVALPRIRDFRGLNPNSFDGRGNYNLGLREQLIFPEITYDMVDALRGMDIAVVTTAETDEEARALLELLGFPFRK", "soluble on expression in E. coli": "soluble"}, {"sequence": "MNLKDPICAIATPPGKGAIGVVRLSGEGALEIAARVWRGKDPRRLKGGRFALGEVVDPKTGEAIDQAILLVFRAPRSYTGEDLVEFQTHGSPAVLRRVMEVLVAEGARPAGRGEFTFRAYLNGKMDLAQAEAVLALIEAEGELARRQALRALEGALSRRIEALENRLLNLLAHIQALLDYPEEGVEPLEAERTIREVLAEVEALLAQAKASRLAQKGARLALIGAPNAGKSSLLNALLGYERALVSPIPGTTRDYLEAPLELFGIPLVAVDTAGVRETEDPVERMGVERALGIAEEADLVLYVVDRSQPKPAPPPLPWARTLKVATKSDLPPAWEDPEFLPVSSLTGEGLDRLKEAVREALLGREGGEVLLTERQVEALLRARERLEEALSLPEDLMGLALEEAARALALLTGKEVAEEVVARVFQNFCVGK", "soluble on expression in E. coli": "soluble"}, {"sequence": "NYDPFVRHSVTVKADRKTAFKTFLEGFPEWWPNNFRTTKVGAPLGVDKKGGRWYEIDEQGEEHTFGLIRKVDEPDTLVIGWRLNGFGRIDPDNSSEFTVTFVADGQKKTRVDVEHTHFDRMGTKHAKRVRNGMDKGWPTILQSFQDKIDEEGAKK", "soluble on expression in E. coli": "soluble"}, {"sequence": "MNVLLMAYGTPYAPEEVEPYYTDIRRGRRPSEELLKELAERYEAIGKSPLNEITLAQAVRLQALLNLEAPPYPKRLLSPFPPRAPHGPARVYVGTKHWHPSIGEAVAAMHEDGVRRAVAIVAAPHYSLRSVAEYREKVDSALKALPEPIDFVWVESYEAHPGLIAAYARRLEEVIWRLKNPGKAAYVFTAHSIPLSAVEKGDPYPRQVEKTAELIAKKLALPRFHVAYQSAGRTPEPWLGPDINELLRTLKEEGYEEVAVQAVGFPADHLEVFYDLDLEAQATARELGLRLLRARSLNADLDYIQVLKDLVEAAWPR", "soluble on expression in E. coli": "soluble"}, {"sequence": "MAEAIFSAIVGDVIGRVISLVVSNFNGDHSTEVKLQRICRMLIKIHSVVEEAKGRQITNHGTLEWLSELIDGAYQGRYLLDTIGCGEPDLDDKNRDEVDPKPFSLSKFNPAKRVRVAAFTVRNILSRHDIGVDEIDRVVESLQSMCGDLKEFMMLLQACQPIHRPLATNIFIEGQMFGRHVKKEMIINFLLHEDDLPRGKLGVLPILGDIGVGKTTLVQHACDDARVRSHFTTILLFNFSHTYKMEMCEPKPVLRPKHVIGDVGNSDDPLHELEQSFFNKRFLIVFEDVDIHKKNMLEELLKSLSCGKQGSKIIVTTSNKHVTTIGTVQPIKLKFLPCPEYWFFFKAHAFAGTDVQENPRLVAAGKSIAAKLNGSFFGAKIIGAILKENPDPKFWCTVLQRDIGGLSLLGDGLGYIADLVEILLPSRLSVKEVFVSKNSLSSETELARLQGLCLPCPSSAPLATHSSELSLAKATSYERVLLCKAVLPFYSLYYTAKCAVDSENCYSKFSVV", "soluble on expression in E. coli": "soluble"}, {"sequence": "MDKLGENLNKALNKLKAAAFVDKKLIKEVIKDIQRALIQADVNVKLVLKMSKEIERRALEEKTPKGLSKKEHIIKIVYEELVKLLGEEAKKLELNPKKQNVILLVGIQGSGKTTTAAKLARYIQKRGLKPALIAADTYRPAAYEQLKQLAEKIHVPIYGDETRTKSPVDIVKEGMEKFKKADVLIIDTAGRHKEEKGLLEEMKQIKEITNPDEIILVIDGTIGQQAGIQAKAFKEAVGEIGSIIVTKLDGSAKGGGALSAVAETKAPIKFIGIGEGIDDLEPFDPKKFISRLLGMGDLESLLEKAEDMVDEKTEESIDAIMRGKFTLNELMTQLEAIENMGSMKKILSMIPGFGGAMPKELSHLTEAKIKKYKVIISSMTKEERENPKIIKASRIRRIARGSGTTENDVREVLRYYETTKNAIDKLHHHHHH", "soluble on expression in E. coli": "soluble"}, {"sequence": "SLDLNDTYSGKREPFSGDHSADGFEVTSRSEMSSGSEISPVSEMPSSSEPSSGADYDYSEEYDNEPQIPGYIVDDSVRVEQVVKPPQNKTESENTSDKPKRKKKGGKNGKNRRNRKKKNPCNAEFQNFCIHGECKYIEHLEAVTCKCQQEYFGERCGEKSMKTHSMIDSSEG", "soluble on expression in E. coli": "not soluble"}, {"sequence": "MGSDKIHHHHHHMRLDTLSKTGGGVQEALSGSVRLYSEVLNREVEVPETPRRIVSLSPAITETLYMLGLEDRIAGVSVYDHKPPKAREKPKVGSYYKVNMKLLEQLNPDLILVTTGAQRRILEDLSRRYPVYPIPLPVSVSGIIDQAVQVGIVTGALEEASRLETELLDKASKLRGAGRGLRIYYEVYLGGPVTAGAHTYISDAFRIAGVETPFMSERTTWIYQPPPERINRFKPQFILYEYSAYAPTTAEKVRGELEARGVDVGSAELVLLEPDTLAHYGPSFIDTMLDLLKTLRDKAGLG", "soluble on expression in E. coli": "not soluble"}, {"sequence": "MDICSRNKKLTIRRPAILVALALLLCSCKSTPPESMVTPPAGSKPPATTQQSSQPMRGIWLATVSRLDWPPVSSVNISNPTSRARVQQQAMIDKLDHLQRLGINTVFFQVKPDGTALWPSKILPWSDLMTGKIGENPGYDPLQFMLDEAHKRGMKVHAWFNPYRVSVNTKPGTIRELNSTLSQQPASVYVQHRDWIRTSGDRFVLDPGIPEVQDWITSIVAEVVSRYPVDGVQFDDYFYTESPGSRLNDNETYRKYGGAFASKADWRRNNTQQLIAKVSHTIKSIKPGVEFGVSPAGVWRNRSHDPLGSDTRGAAAYDESYADTRRWVEQGLLDYIAPQIYWPFSRSAARYDVLAKWWADVVKPTRTRLYIGIAFYKVGEPSKIEPDWMINGGVPELKKQLDLNDAVPEISGTILFREDYLNKPQTQQAVSYLQSRWGS", "soluble on expression in E. coli": "soluble"}, {"sequence": "GPGSMLTGALRLSSHRVQDFIVTTCDKAFMLSSRTRLDKKTVETILLAGYSRIPVYLNDNRRHILGTLIVQSLVILCFTNPNKPPRAGEYPLLETLRLPASTTLYNSYLAFQKNSSNMAVVYDNCGVMVGLWTLTDLLCTLYNTSPAHEGSNTHRQELMVTLLESMKAMNAARRKAQGNVNSAIESEEFFVGGRKK", "soluble on expression in E. coli": "not soluble"}, {"sequence": "MSLDVTDAQAIADHWGRGDVFGLIVAALNQMAKPLDGLTVEELAPVDHFHSRGFPATVEFADRLPINAGEQILDIGCGLGGPARYMAKRFQCRVSGIDITGPFVEAANRLTALLHMEQQVEIAQGNGQRLPYPDSCFDGAYTQDVTMNVAERAGFFAEAYRVLKPGAFFALSEHGLGPQGKPHYPVPWSDDGTGAYLTAPAETRAILERTGFEAITVEDTGAKCVAGYGKVIERAEKGALPPLGLHLFMGESMVEKMRNAARNIEEGRTHPIQLICRKEGHHHHHH", "soluble on expression in E. coli": "soluble"}]}]}
